Ends that are not written are not given here. FAM = 5,6-carboxyfluorescein
T1: Nrd1 CID (S. cerevisiae, UniProt P53617 1-153)
T1 construct: The NMR sample was uniformly 15N,13C-labelled; also called wild-type Nrd1 CID; source: recombinant, purified as described previously (Kubicek et al, 2012)
T1 sequence (looked up): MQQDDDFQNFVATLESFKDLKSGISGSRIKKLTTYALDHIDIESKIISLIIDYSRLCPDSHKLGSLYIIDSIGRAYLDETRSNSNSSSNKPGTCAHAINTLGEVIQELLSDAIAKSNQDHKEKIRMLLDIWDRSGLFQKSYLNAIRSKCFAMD

T2: Nrd1 CID S25D (S. cerevisiae, UniProt P53617 1-153, S25D)
T2 construct: Nrd1 CID, S. cerevisiae; source: recombinant, purified as described previously (Kubicek et al, 2012)
T2 sequence (looked up): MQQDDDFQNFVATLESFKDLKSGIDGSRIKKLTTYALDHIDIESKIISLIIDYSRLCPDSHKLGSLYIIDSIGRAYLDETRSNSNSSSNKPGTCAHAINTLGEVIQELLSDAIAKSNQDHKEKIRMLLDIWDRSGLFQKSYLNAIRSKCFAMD


Key:
[1] = biological target: Sen1 NIM peptide (Sen1 aa 2,052-2,063) (S. cerevisiae) (UniProt Q00416); experiment: fluorescence polarisation; fluorescence anisotropy, equilibrium binding of Nrd1 CID variants to FAM-labelled NIM peptides; 10°C, 50 mM Na2HPO4, 100 mM NaCl, pH 8; 1:1 model with non-specific binding (DynaFit)
[2] = biological target: Trf4 NIM peptide (S. cerevisiae); experiment: as above
Nrd1 CID [3] = biological target: T1, Nrd1 CID; experiment: NMR titration; [1H,15N] HSQC of Nrd1 CID titrated with NIM peptide, chemical shift perturbations; 20°C, 50 mM Na2HPO4, 100 mM NaCl, pH 8; settings: both partners purified
[4] = biological target: Trf4 NIM peptide, FAM-labelled (S. cerevisiae); experiment: fluorescence polarisation; fluorescence anisotropy; N-terminally FAM-labelled NIM peptides with purified Nrd1 CID versions; 10°C, 50 mM Na2HPO4, 100 mM NaCl, pH 8; 1:1 model with non-specific binding (DynaFit)
Nrd1 CID [5] = biological target: T1, Nrd1 CID; experiment: as above; settings: both partners purified
Nrd1 CID S25D = biological target: T2, Nrd1 CID S25D; experiment: as above; settings: both partners purified

Molecule	Kd [2] [µM]	other results
DDDEDDYTPSIS (peptide, UniProt Q00416 2052-2063, looked up, The text prints D2052-D2053-D2054-E2055-D2056-D2057, Y2058, T2059, P2060, S2061 and I2062; it is surmised to be unlabelled; source: synthetic peptide) [Sen1 NIM peptide (NMR)]	–	binding result (Nrd1 CID [3]): binds
Nrd1 CID I130A (domain or fragment) MQQDDDFQNFVATLESFKDLKSGISGSRIKKLTTYALDHIDIESKIISLIIDYSRLCPDSHKLGSLYIIDSIGRAYLDETRSNSNSSSNKPGTCAHAINTLGEVIQELLSDAIAKSNQDHKEKIRMLLDAWDRSGLFQKSYLNAIRSKCFAMD	4.5	–
Nrd1 CID K21D (domain or fragment) MQQDDDFQNFVATLESFKDLDSGISGSRIKKLTTYALDHIDIESKIISLIIDYSRLCPDSHKLGSLYIIDSIGRAYLDETRSNSNSSSNKPGTCAHAINTLGEVIQELLSDAIAKSNQDHKEKIRMLLDIWDRSGLFQKSYLNAIRSKCFAMD	6.1	–
Nrd1 CID I130K (domain or fragment) MQQDDDFQNFVATLESFKDLKSGISGSRIKKLTTYALDHIDIESKIISLIIDYSRLCPDSHKLGSLYIIDSIGRAYLDETRSNSNSSSNKPGTCAHAINTLGEVIQELLSDAIAKSNQDHKEKIRMLLDKWDRSGLFQKSYLNAIRSKCFAMD	14.1	–
Nrd1 CID (domain or fragment) MQQDDDFQNFVATLESFKDLKSGISGSRIKKLTTYALDHIDIESKIISLIIDYSRLCPDSHKLGSLYIIDSIGRAYLDETRSNSNSSSNKPGTCAHAINTLGEVIQELLSDAIAKSNQDHKEKIRMLLDIWDRSGLFQKSYLNAIRSKCFAMD	–	Kd [4]: 0.9 µM
Nrd1 CID R133D (domain or fragment) MQQDDDFQNFVATLESFKDLKSGISGSRIKKLTTYALDHIDIESKIISLIIDYSRLCPDSHKLGSLYIIDSIGRAYLDETRSNSNSSSNKPGTCAHAINTLGEVIQELLSDAIAKSNQDHKEKIRMLLDIWDDSGLFQKSYLNAIRSKCFAMD	1.2	–
Nrd1 CID L20D (domain or fragment) MQQDDDFQNFVATLESFKDDKSGISGSRIKKLTTYALDHIDIESKIISLIIDYSRLCPDSHKLGSLYIIDSIGRAYLDETRSNSNSSSNKPGTCAHAINTLGEVIQELLSDAIAKSNQDHKEKIRMLLDIWDRSGLFQKSYLNAIRSKCFAMD	13.4	–
{FAM}-DDDEDDYTPSIS (peptide, UniProt Q00416 2052-2063, looked up, The text prints D2052-D2053-D2054-E2055-D2056-D2057, Y2058, T2059, P2060, S2061 and I2062; source: synthetic peptide) [Sen1 NIM peptide, FAM-labelled]	–	Kd (Nrd1 CID [5]): 1.2 ± 0.02 µM; binding result (Nrd1 CID S25D): binds

More lines, main results first:

Kd [2] [µM]	Molecule	other results
53.9	Nrd1 CID S25D (from UniProt P53617 1-153) (domain or fragment)	Kd [1]: 76.1 µM
63.4	Nrd1 CID R28D (domain or fragment) MQQDDDFQNFVATLESFKDLKSGISGSDIKKLTTYALDHIDIESKIISLIIDYSRLCPDSHKLGSLYIIDSIGRAYLDETRSNSNSSSNKPGTCAHAINTLGEVIQELLSDAIAKSNQDHKEKIRMLLDIWDRSGLFQKSYLNAIRSKCFAMD	–
1.3	Nrd1 CID R133G (domain or fragment) MQQDDDFQNFVATLESFKDLKSGISGSRIKKLTTYALDHIDIESKIISLIIDYSRLCPDSHKLGSLYIIDSIGRAYLDETRSNSNSSSNKPGTCAHAINTLGEVIQELLSDAIAKSNQDHKEKIRMLLDIWDGSGLFQKSYLNAIRSKCFAMD	–
1.4	Nrd1 CID R133A (domain or fragment) MQQDDDFQNFVATLESFKDLKSGISGSRIKKLTTYALDHIDIESKIISLIIDYSRLCPDSHKLGSLYIIDSIGRAYLDETRSNSNSSSNKPGTCAHAINTLGEVIQELLSDAIAKSNQDHKEKIRMLLDIWDASGLFQKSYLNAIRSKCFAMD	–
6.1	Nrd1 CID I130N (domain or fragment) MQQDDDFQNFVATLESFKDLKSGISGSRIKKLTTYALDHIDIESKIISLIIDYSRLCPDSHKLGSLYIIDSIGRAYLDETRSNSNSSSNKPGTCAHAINTLGEVIQELLSDAIAKSNQDHKEKIRMLLDNWDRSGLFQKSYLNAIRSKCFAMD	–
1.1	Nrd1 CID M126A (domain or fragment) MQQDDDFQNFVATLESFKDLKSGISGSRIKKLTTYALDHIDIESKIISLIIDYSRLCPDSHKLGSLYIIDSIGRAYLDETRSNSNSSSNKPGTCAHAINTLGEVIQELLSDAIAKSNQDHKEKIRALLDIWDRSGLFQKSYLNAIRSKCFAMD	–

Reference: paper PMC7110113, “Termination of non‐coding transcription in yeast relies on both an RNA Pol II CTD interaction domain and a CTD‐mimicking region in Sen1” (The EMBO Journal, 2020)
